Assays:
cynomolgus CD3e [1] = molecular target: T1, cynomolgus CD3e (cynomolgus, UniProt Q95LI5 22-117); test: SPR
T1 chain: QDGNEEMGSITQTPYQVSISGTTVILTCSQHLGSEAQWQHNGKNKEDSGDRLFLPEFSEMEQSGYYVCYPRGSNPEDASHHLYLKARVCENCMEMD

cynomolgus CD3e [2] = molecular target: T2, cynomolgus CD3e (cynomolgus, UniProt Q95LI5 22-117, limits assumed); test: SPR (Biacore T200), antibody captured via anti-human Fc, CD3e as analyte, 1:1 model
T2 construct: also called cCD3e; cyno CD3e
T2 sequence (looked up): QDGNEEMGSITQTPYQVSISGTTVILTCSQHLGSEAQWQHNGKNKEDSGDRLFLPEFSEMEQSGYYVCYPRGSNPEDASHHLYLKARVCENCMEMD
Protocol: (§1) In this example, exemplary humanized anti-CD3 antibody molecules BKM0020, BKM0025, BKM0028, BKM0038 (as described herein) were tested for their binding affinity to human or cynomolgus CD3e using surface plasmon resonance (SPR). SPR measurements were performed by using the BIAcore T200. Each construct was immobilized on a CM5 chip via Anti-human Fc antibody to a response of 200 RU. Human CD3e (Acro Biosystems CDE-H5223) was diluted to 500 nM and then diluted two-fold. Each analyte concentration was injected at a flow rate of 20 μl/min over the surface on which each antibody was immobilized. The data was fit using a 1:1 binding model. Affinity to human CD3e was preserved compared to the parental and affinity to cyno CD3e was two to three-fold lower compared to the parental antibody.

[3] = molecular target: T3, Human CD3e (Acro Biosystems CDE-H5223) (human, UniProt P07766 23-126); test: as above
T3 construct: Analyte in SPR; also called huCD3e
Protocol: as §1

[4] = molecular target: T4, Human CD3e (Acro Biosystems CDE-H5223) (human, UniProt P07766 23-126); test: SPR
T4 chain: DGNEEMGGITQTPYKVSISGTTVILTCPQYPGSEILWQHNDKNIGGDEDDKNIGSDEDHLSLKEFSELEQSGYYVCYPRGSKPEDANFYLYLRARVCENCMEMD

[5] = molecular target: T5, human CD3e on Jurkat cells (human, UniProt P07766 23-207); test: flow cytometry (FACS) on Jurkat cells, 3-fold dilutions from 10 ug/ml, anti-human IgG AF647
T5 construct: whole, on cells; also called huCD3e; CD3 expressed on Jurkat cells
Protocol: Binding of the exemplary humanized anti-CD3 antibodies to CD3-expressing Jurkat cells was performed using FACS. Antibodies were tested in a series of 3-fold dilutions starting with 10 ug/ml concentration and detected using anti-human IgG secondary antibodies conjugated to AF647.

B1: BKM0025 (humanized anti-CD3 antibody molecule) (antibody, V domains shown)
VH: QVQLVQSGAEVKKPGASVKVSCKASGYTFTTYWMHWVRQAPGQGLEWMGNFNPNNGDTNYNEKFKTRVTMTVDKSTSTAYMELRSLRSDDMAVYYCARDDYGRYYFDYWGQGTLVTVSS
VL: EIVMTQSPATLSLSPGERATLSCKSSQSLLNSRTRKNYLAWYQQKPGLAPRLLIYWAFTRESGIPDRFSGSGSGTDFTLTISRLEPEDFAVYYCKQSFILRTFGGGTKVEIK
notes: Captured via anti-human Fc antibody in SPR; constant regions not tied
In the case of B1, the Kd (cynomolgus CD3e [1]) is reported as 18.3 nM, the binding result (cynomolgus CD3e [2]) is reported as “binds” and the binding result [3] is reported as “binds”.

B2: BKM0028 (humanized anti-CD3 antibody molecule) (antibody, V domains shown)
VH: QVQLVQSGAEVKKPGASVKVSCKASGYTFTTYWMHWVRQAPGKGLEWMGNFNPNNGDTNYNEKFKTRVTMTVDKSTSTAYMELSSLRSEDTAVYYCARDDYGRYYFDYWGQGTLVTVSS
VL: EIVMTQSPATLSLSPGERATLSCKSSQSLLNSRTRKNYLAWYQQKPGLAPRLLIYWAFTRESGIPDRFSGSGSGTDFTLTISRLEPEDFAVYYCKQSFILRTFGGGTKVEIK
notes: as for B1
For B2, the Kd [4] was 4.72 nM, the Kd (cynomolgus CD3e [1]) was 14.1 nM and the binding result (cynomolgus CD3e [2]) was “binds”. B2: binds [3].

B3: BKM0020 (humanized anti-CD3 antibody molecule) (antibody, V domains shown)
VH: QVQLVQSGAEVKKPGASVKVSCKASGYTFTTYWMHWVRQAPGQGLEWMGNFNPNNGDTNYNEKFKTRVTMTVDKSTSTAYMELRSLRSDDMAVYYCARDDYGRYYFDYWGQGTLVTVSS
VL: DIQMTQSPSTLSASVGDRVTITCKSSQSLLNSRTRKNYLAWYQQKPGKAPKLLIYWAFTRESGVPSRFSGSGSGTEFTLTISSLQPDDFATYYCKQSFILRTFGGGTKVEIK
notes: Captured via anti-human Fc antibody in SPR, so it carries a human Fc; constant regions not tied
B3 was tested, and the binding result [5] was “binds”, the Kd [4] was 6.34 nM and the Kd (cynomolgus CD3e [1]) was 9.98 nM. B3: binds (cynomolgus CD3e [2]); binds [3].

B4: BKM0038 (humanized anti-CD3 antibody molecule) (antibody, V domains shown)
VH: QVQLVQSGAEVKKPGASVKVSCKASGYTFTTYWMHWVRQAPGKGLEWMGNFNPNNGDTNYNEKFKTRVTMTVDKSTSTAYMELSSLRSEDTAVYYCARDDYGRYYFDYWGQGTLVTVSS
VL: DIQMTQSPSSLSASVGDRVTITCKSSQSLLNSRTRKNYLAWYQQKPGKAPKLLIYWAFTRESGVPSRFSGSGSGTDFTLTISSLQPEDFATYYCKQSFILRTFGGGTKVEIK
notes: as for B1
In the case of B4, the Kd [4] is reported as 6.47 nM, the Kd (cynomolgus CD3e [1]) is reported as 14.1 nM and the binding result (cynomolgus CD3e [2]) is reported as “binds”. B4: binds [3].

Reference: US20240002543A1 (MARENGO THERAPEUTICS, published 2024)
